In one assay the target is M2GHTGKS peptide (influenza A virus). As to the kind of experiment: peptide ELISA. (An ELISA detects its analyte on a solid surface through an enzyme-linked reagent.)
The target in the next assay is M2EG peptide (influenza A virus). As to the kind of experiment: peptide ELISA, grade relative to wild-type M2.
The next assay addresses M2LGS peptide (influenza A virus). Put plainly: peptide ELISA, grade relative to wild-type M2.
Another assay has as its target M2HTGEKS peptide (influenza A virus). Put plainly: peptide ELISA, grade relative to wild-type M2.
In a further assay the target is M2TDGEKS peptide (influenza A virus). Put plainly: peptide ELISA, grade relative to wild-type M2.
The target in the next assay is M2TGS peptide (influenza A virus). As to the kind of experiment: peptide ELISA, grade relative to wild-type M2.
A further assay concerns the target M2TGEK peptide (influenza A virus). Put plainly: peptide ELISA, grade relative to wild-type M2.
In a further assay the target is M2KGENS peptide (influenza A virus). As to the kind of experiment: peptide ELISA, grade relative to wild-type M2.
Assay [1] deals with T1, bovine serum albumin (bovine, UniProt P02769 25-607).
T1 construct: carrier for immunization
T1 sequence (P02769 25-607 limits assumed): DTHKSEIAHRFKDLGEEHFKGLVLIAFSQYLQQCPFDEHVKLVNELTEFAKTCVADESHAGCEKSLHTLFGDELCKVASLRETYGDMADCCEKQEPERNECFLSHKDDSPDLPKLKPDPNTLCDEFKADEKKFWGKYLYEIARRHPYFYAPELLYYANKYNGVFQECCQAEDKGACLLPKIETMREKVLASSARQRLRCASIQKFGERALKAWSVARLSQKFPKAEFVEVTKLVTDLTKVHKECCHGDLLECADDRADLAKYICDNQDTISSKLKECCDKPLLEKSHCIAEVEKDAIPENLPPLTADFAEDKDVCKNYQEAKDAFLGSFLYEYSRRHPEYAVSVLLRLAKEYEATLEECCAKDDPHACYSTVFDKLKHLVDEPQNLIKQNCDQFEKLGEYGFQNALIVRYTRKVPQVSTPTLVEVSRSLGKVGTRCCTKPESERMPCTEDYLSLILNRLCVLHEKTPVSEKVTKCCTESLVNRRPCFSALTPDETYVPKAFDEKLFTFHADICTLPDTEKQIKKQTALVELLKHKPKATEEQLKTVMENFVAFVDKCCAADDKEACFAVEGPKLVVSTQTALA
Put plainly: ELISA; positive = more than 2-fold OD450 of control.

A further assay deals with T2, OVA (UniProt P01012 2-386).
T2 construct: also called ovalbumin
T2 sequence: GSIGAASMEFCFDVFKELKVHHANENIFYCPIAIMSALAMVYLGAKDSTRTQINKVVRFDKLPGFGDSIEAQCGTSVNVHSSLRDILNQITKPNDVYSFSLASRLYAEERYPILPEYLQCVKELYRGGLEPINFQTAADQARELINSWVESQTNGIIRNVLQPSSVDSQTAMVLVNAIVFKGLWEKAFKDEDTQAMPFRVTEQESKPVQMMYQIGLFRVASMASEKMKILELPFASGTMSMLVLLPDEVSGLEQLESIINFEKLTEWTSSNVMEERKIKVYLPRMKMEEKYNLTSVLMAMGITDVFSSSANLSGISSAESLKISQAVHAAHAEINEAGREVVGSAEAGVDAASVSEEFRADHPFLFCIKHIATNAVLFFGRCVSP
The assay is described as above.

In assay [2] the target is T1, bovine serum albumin. Put plainly: ELISA.

Protocol for M2EG peptide: (§1) ELISA: Antibody titers and antibody specificity as well as antibody production by hybridomas were determined by ELISA. […] After washing twice with PBS/0.1% Tween 20, plates were blocked with PBS/1% BSA (Sigma, St. Louis, Mo.) at 37° C. for 30 min., the antibody or serum was added to the wells and the plates were incubated at 37° C. for 1 hr. After washing four times, diluted HRP conjugated goat anti-human Immunoglobulin gamma chain specific antibody (Jackson Immunoresearch Laboratory, West Grove, Pa.) was added to the wells and incubated for 1 hr at 37° C. After washing four times, TMB substrate solution (DAKO, CA) was added and incubated for 30 min at room temperature. The optical density at 450 nm was measured by a microplate reader.
Protocol for M2GHTGKS peptide: as §1
Protocol for M2HTGEKS peptide: as §1
Protocol for M2KGENS peptide: as §1
Protocol for M2LGS peptide: as §1
Protocol for M2TDGEKS peptide: as §1
Protocol for M2TGEK peptide: as §1
Protocol for M2TGS peptide: as §1

B1: human anti-M2 monoclonal antibody no. Z3G1 (recombinant IgG1 type Z3, CHO; ATCC PTA-5967) (antibody, V domains shown)
VH: QVQLVQSGAEVKKPGASVKVSCKASGYTFTSYGISWVRQAPGQGLEWMGWISAYNGNTNYAQKLQGRVTMTTDTSTSTAYMELRSLRSDDTAVYYCARAAAGGYFQHWGQGTLVTVSS
VL: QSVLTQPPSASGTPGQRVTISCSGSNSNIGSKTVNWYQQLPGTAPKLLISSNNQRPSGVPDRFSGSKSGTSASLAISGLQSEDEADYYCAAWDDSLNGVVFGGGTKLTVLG
On to B1, for which the binding result in the assay with M2GHTGKS peptide is “no binding (tested: <10% of binding to wild-type M2 peptide)”; in the assay with M2EG peptide it was “binds”; with M2LGS peptide, “binds”; with M2HTGEKS peptide, “binds”; in the assay with M2TDGEKS peptide it was “binds”; in the assay with M2TGS peptide, “binds”. Moreover, the binding result with M2TGEK peptide is recorded as “binds”; with M2KGENS peptide it was “binds”; with bovine serum albumin [1], “no binding”; with OVA it was “no binding”.

B2: human anti-M2 antibody Z3 (original, IgG3, hybridoma 113Z-3) (antibody, V domains shown)
VH: QVQLVQSGAEVKKPGASVKVSCKASGYTFTSYGISWVRQAPGQGLEWMGWISAYNGNTNYAQKLQGRVTMTTDTSTSTAYMELRSLRSDDTAVYYCARAAAGGYFQHWGQGTLVTVSS
VL: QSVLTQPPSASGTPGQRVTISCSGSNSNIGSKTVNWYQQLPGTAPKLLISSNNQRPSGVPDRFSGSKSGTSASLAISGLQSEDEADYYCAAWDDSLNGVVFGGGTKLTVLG
Consider B2, for which the binding result in the assay with bovine serum albumin [2] is listed as “no binding”.

The record behind these values is US20090196872A1 (KIRIN BEER, published 2009).
